In PMC5405427:

Columns and labels:
[1] = biological target: T1, IBV nsp9 wild-type (avian infectious bronchitis virus (IBV) …, UniProt P0C6Y3 3675-3785); assay: BLI
T1 sequence: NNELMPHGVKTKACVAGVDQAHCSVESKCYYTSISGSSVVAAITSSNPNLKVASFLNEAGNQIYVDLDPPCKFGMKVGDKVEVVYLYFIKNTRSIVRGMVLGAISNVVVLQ

[2] = biological target: T1, IBV nsp9 wild-type; assay: zone-interference gel electrophoresis

B1: 20-mer RNA, biotin (BLI) (ssRNA)
RNA: CGACUCAUGGACCUUGGCAG
modifications: phosphorothioate linkages at last two 3' residues (A19, G20)
- Kd [1]: 28 µM

B2: 20-mer ssDNA (ssDNA)
DNA: CGACTCATGGACCTTGGCAG
- binding result [2]: binds
